Earlier results in US20240100071A1, “COMBINATION THERAPY FOR PATIENTS HAVING ACUTE AND/OR PERSISTENT DYSPNEA” (S-Form Pharma, priority 2020, published 2024).
Read-outs that look alike come from different tables or passages of the source.

Conditions: human plasma 24° C., cited from earlier work; for Average ADM recovery (N = 5): 10 ng ADM/ml; for Average loss of immune reactivity: MR-ADM/CT-ADM sandwich immune assay

## Human Adrenomedullin [hADM]
0 h
  Average ADM recovery (N = 5): 100
2 h
  Average ADM recovery (N = 5): 99.2
  Loss of immune reactivity %/h: 0.4 %/h
4 h
  Average ADM recovery (N = 5): 96.4
  Loss of immune reactivity %/h: 0.8 %/h
8 h
  Average ADM recovery (N = 5): 88.2
  Loss of immune reactivity %/h: 1.5 %/h
  Average loss of immune reactivity: Average: 0.9%/h
Listed as ADM
  Average loss of immune reactivity: 0.9 %/h
